Measurements taken from publication doi:10.1101/716332.

Molecular target: PA28γ (endogenous, U2OS cells) (human (endogenous in U2OS)) (UniProt P61289)
Test: proximity ligation

Sequence of UniProt P61289 (P61289 whole entry): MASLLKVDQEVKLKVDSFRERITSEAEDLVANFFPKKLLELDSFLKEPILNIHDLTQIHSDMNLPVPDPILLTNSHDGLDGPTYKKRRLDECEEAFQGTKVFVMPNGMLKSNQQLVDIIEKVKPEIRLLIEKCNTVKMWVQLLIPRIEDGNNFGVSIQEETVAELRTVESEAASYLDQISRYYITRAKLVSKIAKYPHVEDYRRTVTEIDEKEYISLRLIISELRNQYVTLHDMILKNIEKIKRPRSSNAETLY

PLA dots per nucleus (PLA dots per nucleus): < 60
Substance: 20S proteasome (endogenous, U2OS cells), detected by its α4 subunit (from UniProt O14818 1-248) (complex)
